Positions of bridges follow the written chain, without caps; N, C: chain ends. No end group written: not given here.

B1: cyclic peptide CP8 (peptide)
peptide: CLYRDPLGVAGGMGC
modifications: not fully specified (bridges); cysteine pairing not given here
notes: source: synthetic peptide (manual solid phase Fmoc chemistry, iodine oxidation, RP-HPLC)
B2: cyclic peptide CP11 (peptide)
peptide: CYRDPLGVAGGMC
modifications: disulfide 1-13
notes: as for B1
B3: cyclic peptide CP14 (peptide)
peptide: LYEDPLGVAGGMG
modifications: head-to-tail lactam cyclized (no template)
notes: source: synthetic peptide (manual solid phase Fmoc chemistry, RP-HPLC)

The test has as its target H1/Bri HA, A/Brisbane/59/07 (H1N1) hemagglutinin, C-terminally biotinylated, for the CCI assay (influenza A virus A/Brisbane/59/07 …, C-terminal biotin). In words: cell-based or functional assay.
With CYRDPLGVAGEMC (not fully specified; cysteine pairing not given here) [cyclic peptide CP13], the “conformational change inhibition assay (CCI) IC50” value was 39.4 µM. B1: the “conformational change inhibition assay (CCI) IC50” value turned out to be 0.54 µM.

Consider B2, for which the “conformational change inhibition assay (CCI) IC50” value stood at 8.52 µM. Regarding B3, the “conformational change inhibition assay (CCI) IC50” value worked out at 1.24 µM.

For the origin of these results see paper PMC12714728 (npj Viruses, 2025).
